Data from patent US7799901B2, “Modulators of the function of FAS receptors and other proteins” (Yeda Research and Development Co. Ltd., priority 1995, dated 2010).

Assays:
[1] = target: CED3/ICE homology region in MACHα1 (Homo sapiens, UniProt Q14790); conditions: 5 mM; bacterial extracts; listed as iodacetic acid
[2] = target: T1, FAS-R-p55-R chimera (p55-FAS) (Homo sapiens, UniProt P19438+P25445); assay: Cross immunoprecipitation with co-expressed p55-FAS chimera in HeLa cells; assay type: binding
T1 construct: transmembrane and intracellular domain of FAS-R (amino acids 153-319); expressed in transfected cells; host or cells: HeLa HtTA-1
T1 sequence (P19438+P25445 with tags, fused parts or gaps): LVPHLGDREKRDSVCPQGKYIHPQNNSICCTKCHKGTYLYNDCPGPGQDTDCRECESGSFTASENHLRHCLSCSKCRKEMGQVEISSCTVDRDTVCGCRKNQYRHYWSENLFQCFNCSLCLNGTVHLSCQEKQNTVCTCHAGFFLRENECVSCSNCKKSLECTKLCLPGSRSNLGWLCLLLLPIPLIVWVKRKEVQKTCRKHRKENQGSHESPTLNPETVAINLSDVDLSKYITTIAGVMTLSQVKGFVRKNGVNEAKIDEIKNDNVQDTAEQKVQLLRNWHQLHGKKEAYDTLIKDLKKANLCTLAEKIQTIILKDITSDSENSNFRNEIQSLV
Procedure: (§1) MORT-1, N-linked to the FLAG octapeptide, (FLAG-MORT-1; Eastman Kodak, New Haven, Conn., USA), Fas-IC, FAS-R, p55-R, a chimera comprised of the extracellular domain of p55-R (amino acids 1-168) fused to the transmembrane and intracellular domain of FAS-R (amino acids 153-319), and the luciferase cDNA which serves as a control, were expressed in HeLa cells. Expression was carried out using a tetracycline-controlled expression vector, in a HeLa cell clone (HtTA-1) that expresses a tetracycline-controlled transactivator (Gossen and Bujard, 1992; see also Boldin et al, 1995). Metabolic labeling with [^35S]methionine and [^35S] cysteine (DUPONT, Wilmington, Del., USA and Amersham, Buckinghamshire, England) was performed 18 hours after transfection, by a further 4 h incubation at 37° C. in Dulbecco's modified Eagle's medium lacking methionine and cysteine, but supplemented with 2% dialyzed fetal calf serum. The cells were then lysed in RIPA buffer (10 mM Tris-HCl, pH 7.5, 150 mM NaCl, 1 NP-40, 1% deoxycholate, 0.1% SDS and 1 mM EDTA) and the lysate was precleared by incubation with irrelevant rabbit antiserum (3 μl/ml) and Protein G Sepharose beads (Pharmacia, Uppsala, Sweden; 60 μl/ml). […]

[3] = tested on: GST-Fas-IC fusion protein; assay: In vitro binding to GST-Fas-IC on glutathione beads; design: species or system human or mouse; conditions: [35S]-labeled protein from HeLa extracts; SDS-PAGE, autoradiography
Procedure: Glutathione S-transferase (GST) fusions with the wild type or a mutated Fas-IC were produced and adsorbed to glutathione-agarose beads; see Boldin et al, 1995; Ausubel et al, 1994; Frangioni and Neel, 1993). Binding of metabolically-labeled FLAG-MORT-1 fusion protein to GST-Fas-IC was assessed by incubating the beads for 2 h at 4° C. with extracts of HeLa cells, metabolically labeled with [^35S]methionine (60 μCi/ml), that express FLAG-MORT-1. The extracts were prepared in a buffer containing 50 mM Tris-HCl, pH 7.5, 150 mM NaCl, 0.1% NP-40; 1 mM dithioteitol, 1 mM EDTA, 1 mM phenylmethylsulfonyl fluoride, 20 μg/ml Aprotonin, […] Leupeptin, 10 mM-sodium fluoride and 0.1 mM sodium vanadate (1 ml per 5×10^5 cells).
Expression of MORT-1 molecules fused at their N terminus with the. FLAG octapeptide (FLAG-MORT-1) yielded in HeLa cells proteins of four distinct sizes—about […], 28, 32, and 34 kD. […] Thus, the in vitro interaction was evaluated by assessing, by autoradiography following SDS-PAGE, the binding of [35] metabolically labeled MORT-1, produced in transfected HeLa cells as a fusion with the FLAG octapeptide (FLAG-MORT-1), to GST, GST fusion with the human or mouse Fas-IC (GST-huFas-IC, GST-mFas-IC) or to GST fusion with Fas-IC containing a Ile to Ala replacement mutation at position 225.

[4] = target: T2, intracellular domain of FAS-R (Homo sapiens, UniProt P25445); assay: Cross immunoprecipitation with co-expressed FAS-R in HeLa cells; assay type: binding
T2 construct: expressed in transfected cells; host or cells: HeLa HtTA-1
T2 sequence (P25445 26-335): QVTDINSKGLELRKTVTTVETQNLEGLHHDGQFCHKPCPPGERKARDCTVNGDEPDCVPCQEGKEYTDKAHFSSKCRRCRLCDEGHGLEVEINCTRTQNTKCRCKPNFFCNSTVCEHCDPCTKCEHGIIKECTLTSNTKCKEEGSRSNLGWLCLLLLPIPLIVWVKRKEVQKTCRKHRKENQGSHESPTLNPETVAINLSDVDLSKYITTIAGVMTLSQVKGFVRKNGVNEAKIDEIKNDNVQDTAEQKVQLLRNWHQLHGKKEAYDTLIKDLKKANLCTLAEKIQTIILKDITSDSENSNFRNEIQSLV
Procedure: as §1

Sequence of CED3/ICE homology region in MACHα1 (Q14790 217-479): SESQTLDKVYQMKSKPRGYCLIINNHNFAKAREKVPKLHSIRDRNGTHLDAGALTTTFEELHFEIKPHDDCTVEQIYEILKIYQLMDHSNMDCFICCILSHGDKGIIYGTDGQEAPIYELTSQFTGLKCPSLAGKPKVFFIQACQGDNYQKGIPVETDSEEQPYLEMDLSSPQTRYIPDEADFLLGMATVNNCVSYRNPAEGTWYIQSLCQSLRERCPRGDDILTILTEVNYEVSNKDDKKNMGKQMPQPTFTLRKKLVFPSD

Molecule: O=C(O)CI [iodoacetic acid]
- effect on cleavage of Ac-DEVD-AMC by the MACHα1 CED3/ICE homology region [1]: blocked

B1: FLAG-MORT-1: MORT-1, N-linked to the FLAG octapeptide (protein)
chain: VNQAPECRFGGGILGPLGKRRDLARASEPRTEGARRAGPQPRPLADPAMDPFLVLLHSVSSSLSSSELTELKFLCLGRVVKRKLERVQSGLDLFSMLLEQNDLEPGHTELLRELLASLRRHDLLRRVDDFEAGAAAGAAPGEEDLCAAFNVICDNVGKDWRRLARQLKVSDTKIDSIEDRYPRNLTERVRESLRIWKNTEKENATVAHLVGALRSCQMNLVADLVQEVQQARDLQNRSGAMSPMSWNSDASTSEAS
modifications: left off: small tags and cut ends
notes: MORT-1, N-linked to the FLAG octapeptide
- binding to intracellular domain of FAS-R-p55-R chimera when co-expressed in HeLa cells [2]: capable of binding
- in vitro binding to GST-Fas-IC [3]: showed ability to bind
- binding to intracellular domain of FAS-R when co-expressed in HeLa cells [4]: capable of binding
